According to publication PMC3925836 (Advanced healthcare materials, 2013):
Changes are numbered by the printed parent chain. Values belong to the binder of their own block, whether it stands above or below them.

Columns and labels:
GPSP-P40-I60 = molecular target: T1, GPSP-P40-I60; experiment: SYPRO Orange thermal transition assay
T1 chain: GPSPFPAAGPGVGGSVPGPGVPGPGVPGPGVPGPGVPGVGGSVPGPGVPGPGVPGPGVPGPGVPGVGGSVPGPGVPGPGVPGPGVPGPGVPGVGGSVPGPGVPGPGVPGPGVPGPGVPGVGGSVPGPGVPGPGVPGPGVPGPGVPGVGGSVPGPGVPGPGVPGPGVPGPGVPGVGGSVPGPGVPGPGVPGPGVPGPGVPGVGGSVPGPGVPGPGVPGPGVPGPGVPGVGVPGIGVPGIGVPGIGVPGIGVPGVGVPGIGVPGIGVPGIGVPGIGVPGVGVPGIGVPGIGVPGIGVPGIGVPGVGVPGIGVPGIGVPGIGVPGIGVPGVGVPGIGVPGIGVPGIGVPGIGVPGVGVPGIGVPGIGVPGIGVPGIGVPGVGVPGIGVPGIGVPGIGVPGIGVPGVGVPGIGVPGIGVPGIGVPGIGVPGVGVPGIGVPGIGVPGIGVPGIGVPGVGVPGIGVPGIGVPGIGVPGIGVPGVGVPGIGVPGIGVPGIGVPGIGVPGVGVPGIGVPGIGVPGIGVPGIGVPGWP

dynamic light scattering = molecular target: the molecule itself; experiment: dynamic light scattering

binding result (GPSP-P40-I60): binds
B1: GPRP-A80-I60 (designed binder)
chain: GPRPFPAAGPGVGVPGAGVPGAGVPGAGVPGAGVPGVGVPGAGVPGAGVPGAGVPGAGVPGVGVPGAGVPGAGVPGAGVPGAGVPGVGVPGAGVPGAGVPGAGVPGAGVPGVGVPGAGVPGAGVPGAGVPGAGVPGVGVPGAGVPGAGVPGAGVPGAGVPGVGVPGAGVPGAGVPGAGVPGAGVPGVGVPGAGVPGAGVPGAGVPGAGVPGVGVPGAGVPGAGVPGAGVPGAGVPGVGVPGAGVPGAGVPGAGVPGAGVPGVGVPGAGVPGAGVPGAGVPGAGVPGVGVPGAGVPGAGVPGAGVPGAGVPGVGVPGAGVPGAGVPGAGVPGAGVPGVGVPGAGVPGAGVPGAGVPGAGVPGVGVPGAGVPGAGVPGAGVPGAGVPGVGVPGAGVPGAGVPGAGVPGAGVPGVGVPGIGVPGIGVPGIGVPGIGVPGVGVPGIGVPGIGVPGIGVPGIGVPGVGVPGIGVPGIGVPGIGVPGIGVPGVGVPGIGVPGIGVPGIGVPGIGVPGVGVPGIGVPGIGVPGIGVPGIGVPGVGVPGIGVPGIGVPGIGVPGIGVPGVGVPGIGVPGIGVPGIGVPGIGVPGVGVPGIGVPGIGVPGIGVPGIGVPGVGVPGIGVPGIGVPGIGVPGIGVPGVGVPGIGVPGIGVPGIGVPGIGVPGVGVPGIGVPGIGVPGIGVPGIGVPGVGVPGIGVPGIGVPGIGVPGIGVPGWP

binding result (GPSP-P40-I60): binds
B2: GPSP-A80-I60 (designed binder)
chain: B1 chain with R3S
binding result (dynamic light scattering): binds

B3: GPRP-P40-I60 (designed binder)
chain: T1 chain with S3R
binding result (dynamic light scattering): binds
